Legend:
[1] = target: T1, 6His-AviTag-linked cynomolgus monkey IL-33 (residues 112 to 269) (cynomolgus monkey, UniProt O95760 112-269 (human entry), biotin on the AviTag portion (BirA) in the SPR of Example 7; used without biotinylation in Example 10); assay: cell-based or functional assay
T1 chain: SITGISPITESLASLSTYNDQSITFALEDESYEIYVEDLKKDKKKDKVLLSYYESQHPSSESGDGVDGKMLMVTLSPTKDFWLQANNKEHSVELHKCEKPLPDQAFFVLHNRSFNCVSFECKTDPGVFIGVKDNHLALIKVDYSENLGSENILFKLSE

[2] = target: T2, recombinant human IL-33 protein (residues 112 to 270) (ILC0701, ATGen Co. Ltd) (human, UniProt O95760 112-270); assay: cell-based or functional assay
T2 sequence: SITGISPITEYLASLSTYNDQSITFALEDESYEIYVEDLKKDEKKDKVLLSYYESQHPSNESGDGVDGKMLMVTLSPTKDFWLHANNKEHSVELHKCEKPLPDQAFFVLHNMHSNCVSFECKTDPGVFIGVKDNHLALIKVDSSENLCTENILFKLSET

[3] = target: T2, recombinant human IL-33 protein …; assay: SPR (Biacore T200), human IL-33 (ILC0701) immobilized on CM5, Calibration Free Concentration Analysis of the preserved antibody against a control-preserved sample
Description: Each alkaline-purified antibody was dissolved in a citrate buffer (50 mM citric acid; 150 mM NaCl (pH: 6.3)) at a concentration of about 10 mg/mL, and was preserved at a temperature of 40° C. for four weeks, to evaluate the preservation stability of each test antibody (IgG). For evaluation of the monomer purity of each antibody after the preservation, monomer purity was measured by size exclusion chromatography analysis (SEC) and microchip capillary SDS electrophoresis (mCE-SDS), and antigen-binding activity was measured by surface plasmon resonance.
In order to confirm the presence of the antigen-binding ability after the preservation, the antigen-binding activity was measured with a surface plasmon resonance system, Biacore T200 (available from GE Healthcare). A human IL-33 protein (ILC0701, available from ATGen Co. Ltd) was immobilized onto a Sensor Chip CM5 (GE Healthcare) (the amount of immobilized protein was about 3000 to 6000 RU) with Amine Coupling Kit (GE Healthcare). Each preserved antibody solution was then diluted to 10-fold with a citric buffer (50 mM citric acid, 150 mM NaCl (pH: 6.3)), and the resulting solution was analyzed to measure the total protein concentration in the solution, using a microvolume spectrophotometer, Astragene II (Astranet Systems, Ltd.) (protein concentration: about 1 mg/mL). The antibody solution after the measurement of the total protein concentration was diluted to 1000-fold with HBS-EP buffer (10 mM HEPES, 150 mM NaCl, 3 mM EDTA, 0.05% (v/v) Surfactant P20 (at pH of 7.4)). The analyte was thereby prepared. The measurement temperature was 25° C. Each analyte was added for 36 seconds at two flow rates of 5 μL/min and 100 μL/min to obtain sensorgrams of the association phase. The sensorgrams were then analyzed by Calibration Free Concentration Analysis using a data analysis program (GE Healthcare, Biacore T200 Evaluation Software v1.0) to determine the concentration of the antibody having antigen-binding activity. As control, each test antibody after preservation at a temperature of 4° C. for four weeks was also analyzed to confirm the antigen-binding activity, to calculate the ratio of antigen-binding activity of each test antibody after the preservation at a temperature of 40° C. for four weeks.

IC50 of inhibition of IL-6 production by HUVEC (alkaline-purified IgG, cynomolgus monkey IL-33 100 ng/mL, not biotinylated) [1]: 0.43 µg/mL | IC50 of inhibition of IL-6 production by HUVEC (alkaline-purified IgG, human IL-33 100 ng/mL) [2]: 0.35 µg/mL | inhibition of IFN-γ production by human PBMC (alkaline-purified IgG 10 ug/mL, IL-33 10 ng/mL, IL-12 10 ng/mL) [2]: 96.9% | inhibition of production of IL-5 and IL-13 by KU-812 cells (alkaline-purified IgG 1 ug/mL; IL-33 3 ng/mL with IL-3 and C5a) [2]: ≥ 50% | percentage of inhibition (%) of IL-6 production by HUVEC (neutral-purified IgG 1 ug/mL, IL-33 100 ng/mL) [2]: 67% | % Active IgG (antigen binding activity after preservation at 40 C for 4 W) [3]: 99.3%
B1: A10-1C04 (IgG) (antibody, V domains shown)
VH: EVQLLESGGGLVQPGGSLRLSCAASGFTFSDYYMNWVRQAPGKGLEWVSSISRYSSYIYYADSVKGRFTISRDNSKNTLYLQMNSLRAEDTAVYYCARDIGGMDVWGQGTLVTVSS
VL: QSVLTQPPSASGTPGQRVTISCTGSSSNIGAVYDVHWYQQLPGTAPKLLIYRNNQRPSGVPDRFSGSKSGTSASLAISGLRSEDEADYYCQTYDSSRWVFGGGTKLTVL
notes: tested as neutral-purified and as alkaline-purified antibody; also called V1; IGN1
